Laboratory results as given in the supplement of paper PMC10126150.
± gives the standard deviation of the averaged measurements.
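Further: ATP exposure 15 min at 22 °C before imaging.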

What follows are sequences tested on ATP (assay: switch fluorescence ratio, 500 uM ATP over buffer (Cy3 cluster intensity, sum of 5 cycles each) (fold (ratio)); higher = stronger signal-on switching upon ATP binding; sequences stand for … in TCGTCGGCAGCGTCAGATGTGTATAAGAGACAGTTTTTTTTTTTTTTTTTTTTTTTTT…TC). Conditions: aptamer strand: ATP DNA aptamer (quencher-CACCTGGGGGAGTATTGCGGAGGAAGG + anchor), 100 nM annealed; ATP concentration: 500 uM.
How it was run: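 Cy3-labelled switching-strand clusters on a modified Illumina MiSeq flow-cell were annealed to 100 nM quencher-labelled ATP aptamer and imaged first in selection buffer, then after 15 min with 500 uM ATP at 22 °C. NaOH stripping and re-annealing separated each of five buffer/ATP cycles, and clusters outside 100-1000 RFU were excluded. The fluorescence ratio sums target-cycle Cy3 intensity over buffer-cycle Cy3 intensity per cluster and averages it per switch-domain sequence.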
ATGGTGGCCG was tested, and the switch fluorescence ratio was 0.997 ± 0.026.
ATGGTGGGCT gave a switch fluorescence ratio of 0.9811 ± 0.0032.
In the case of ATGGTGGGGG, the switch fluorescence ratio is reported as 0.995 ± 0.034.
With ATGGTGTACT the switch fluorescence ratio was 1.012 ± 0.0033.
ATGGTGTTCG gave a switch fluorescence ratio of 0.987 ± 0.019.
ATGGTGTTGC gave a switch fluorescence ratio of 0.964 ± 0.028.
ATGGTTAAAG showed a switch fluorescence ratio of 0.996 ± 0.026.
ATGGTTATGC was tested, and the switch fluorescence ratio was 1.03 ± 0.051.
For ATGGTTCAAT, the switch fluorescence ratio was 0.987 ± 0.029.
Work on ATGGTTCACT yielded a switch fluorescence ratio of 1.023 ± 0.0032.
With ATGGTTCCCT the switch fluorescence ratio was 1.01 ± 0.02.
For ATGGTTGGGT, the switch fluorescence ratio was 0.994 ± 0.012.
Work on ATGGTTGTGT yielded a switch fluorescence ratio of 0.983 ± 0.034.
For ATGGTTTATG, the switch fluorescence ratio was 0.9812 ± 0.0077.
Work on ATGGTTTGGT yielded a switch fluorescence ratio of 0.997 ± 0.024.
Work on ATGGTTTTAA yielded a switch fluorescence ratio of 1.03 ± 0.02.
ATGGTTTTAG showed a switch fluorescence ratio of 0.993 ± 0.033.
Sequence ATGTAAAAGT has a switch fluorescence ratio of 0.986 ± 0.043.
In the case of ATGTAATAGT, the switch fluorescence ratio is reported as 1.014 ± 0.0069.
Work on ATGTAATCTA yielded a switch fluorescence ratio of 0.961 ± 0.036.
For ATGTAATTTG, the switch fluorescence ratio was 0.988 ± 0.03.
ATGTACTTGG showed a switch fluorescence ratio of 1.02 ± 0.013.
For ATGTAGAAAT, the switch fluorescence ratio was 1.05 ± 0.039.
In the case of ATGTAGCATA, the switch fluorescence ratio is reported as 1.57 ± 0.082.
Sequence ATGTAGGCAG has a switch fluorescence ratio of 0.961 ± 0.029.
ATGTATAGCA was tested, and the switch fluorescence ratio was 1 ± 0.041.
In the case of ATGTATGGGC, the switch fluorescence ratio is reported as 0.9814 ± 0.0047.
For ATGTATGTAA, the switch fluorescence ratio was 1.01 ± 0.018.
In the case of ATGTATGTGG, the switch fluorescence ratio is reported as 0.987 ± 0.049.
In the case of ATGTATTATA, the switch fluorescence ratio is reported as 1.01 ± 0.013.
For ATGTCAAGGG, the switch fluorescence ratio was 0.9944 ± 0.0085.
With ATGTCACTTG the switch fluorescence ratio was 1.02 ± 0.018.
For ATGTCAGATT, the switch fluorescence ratio was 1.01 ± 0.037.
ATGTCAGGGT gave a switch fluorescence ratio of 0.9732 ± 0.0086.
ATGTCATTGG gave a switch fluorescence ratio of 1.01 ± 0.024.
With ATGTCCAAGG the switch fluorescence ratio was 1.005 ± 0.0071.
Sequence ATGTCCTGTG has a switch fluorescence ratio of 1.01 ± 0.028.
ATGTCGGCTT was tested, and the switch fluorescence ratio was 1.03 ± 0.018.
With ATGTCGGTTT the switch fluorescence ratio was 1.02 ± 0.026.
Work on ATGTCGTGGC yielded a switch fluorescence ratio of 1 ± 0.048.
In the case of ATGTGATAGG, the switch fluorescence ratio is reported as 1.01 ± 0.058.
ATGTGATAGT was tested, and the switch fluorescence ratio was 0.98 ± 0.015.
ATGTGCCAGT gave a switch fluorescence ratio of 0.962 ± 0.012.
Work on ATGTGCCTGT yielded a switch fluorescence ratio of 0.9799 ± 0.0065.
Sequence ATGTGCGCAC has a switch fluorescence ratio of 1.002 ± 0.0023.
With ATGTGCTGGG the switch fluorescence ratio was 0.981 ± 0.031.
Work on ATGTGCTGGT yielded a switch fluorescence ratio of 0.991 ± 0.021.
ATGTGCTTAG was tested, and the switch fluorescence ratio was 1.04 ± 0.084.
Sequence ATGTGGACTG has a switch fluorescence ratio of 1.05 ± 0.014.
Work on ATGTGGCGTC yielded a switch fluorescence ratio of 1.01 ± 0.019.
In the case of ATGTGGGGAG, the switch fluorescence ratio is reported as 0.9941 ± 0.002.
ATGTGTAACA showed a switch fluorescence ratio of 0.97 ± 0.037.
Sequence ATGTGTATCG has a switch fluorescence ratio of 0.969 ± 0.039.
In the case of ATGTGTATGG, the switch fluorescence ratio is reported as 0.998 ± 0.018.
In the case of ATGTGTCGCG, the switch fluorescence ratio is reported as 0.9917 ± 0.0045.
ATGTGTGAGG showed a switch fluorescence ratio of 1.01 ± 0.014.
Work on ATGTGTTACA yielded a switch fluorescence ratio of 1.01 ± 0.03.
ATGTTAGGCT showed a switch fluorescence ratio of 0.998 ± 0.025.
In the case of ATGTTATTG, the switch fluorescence ratio is reported as 0.973 ± 0.031.
ATGTTCCTAC was tested, and the switch fluorescence ratio was 1.04 ± 0.011.
Sequence ATGTTCGTTA has a switch fluorescence ratio of 1.0123 ± 0.00085.
In the case of ATGTTCTCAA, the switch fluorescence ratio is reported as 0.998 ± 0.01.
Work on ATGTTCTCCG yielded a switch fluorescence ratio of 1.14 ± 0.035.
With ATGTTCTCGT the switch fluorescence ratio was 0.995 ± 0.021.
ATGTTCTCTG was tested, and the switch fluorescence ratio was 1.033 ± 0.0091.
ATGTTGAAGG was tested, and the switch fluorescence ratio was 1.03 ± 0.069.
With ATGTTGGGTA the switch fluorescence ratio was 0.982 ± 0.019.
With ATGTTGGGTG the switch fluorescence ratio was 1.02 ± 0.045.
In the case of ATGTTGGTTT, the switch fluorescence ratio is reported as 0.996 ± 0.021.
ATGTTGTATT gave a switch fluorescence ratio of 1.01 ± 0.052.
ATGTTGTGCT showed a switch fluorescence ratio of 0.984 ± 0.045.
With ATGTTGTTTG the switch fluorescence ratio was 0.979 ± 0.014.
ATGTTTATGA was tested, and the switch fluorescence ratio was 0.981 ± 0.031.
For ATGTTTGAAG, the switch fluorescence ratio was 0.9844 ± 0.0042.
Sequence ATGTTTGATG has a switch fluorescence ratio of 0.998 ± 0.024.
For ATGTTTGCCT, the switch fluorescence ratio was 1.002 ± 0.0087.
